Measurements from patent publication US20260116937A1 (published 2026).
Changes are numbered by the printed parent chain. In names and notes the source's numbering stands.

Assays:
human C3b [1] = target: T1, human C3b (human, UniProt P01024 749-1663; P01024 23-667); test: ELISA
human C3b [2] = target: T1, human C3b; test: ELISA; remark: listed apart in the source
human C3b [3] = target: T1, human C3b; test: ELISA; culture supernatant

T1 sequence (P01024 749-1663, chain 1 of 2): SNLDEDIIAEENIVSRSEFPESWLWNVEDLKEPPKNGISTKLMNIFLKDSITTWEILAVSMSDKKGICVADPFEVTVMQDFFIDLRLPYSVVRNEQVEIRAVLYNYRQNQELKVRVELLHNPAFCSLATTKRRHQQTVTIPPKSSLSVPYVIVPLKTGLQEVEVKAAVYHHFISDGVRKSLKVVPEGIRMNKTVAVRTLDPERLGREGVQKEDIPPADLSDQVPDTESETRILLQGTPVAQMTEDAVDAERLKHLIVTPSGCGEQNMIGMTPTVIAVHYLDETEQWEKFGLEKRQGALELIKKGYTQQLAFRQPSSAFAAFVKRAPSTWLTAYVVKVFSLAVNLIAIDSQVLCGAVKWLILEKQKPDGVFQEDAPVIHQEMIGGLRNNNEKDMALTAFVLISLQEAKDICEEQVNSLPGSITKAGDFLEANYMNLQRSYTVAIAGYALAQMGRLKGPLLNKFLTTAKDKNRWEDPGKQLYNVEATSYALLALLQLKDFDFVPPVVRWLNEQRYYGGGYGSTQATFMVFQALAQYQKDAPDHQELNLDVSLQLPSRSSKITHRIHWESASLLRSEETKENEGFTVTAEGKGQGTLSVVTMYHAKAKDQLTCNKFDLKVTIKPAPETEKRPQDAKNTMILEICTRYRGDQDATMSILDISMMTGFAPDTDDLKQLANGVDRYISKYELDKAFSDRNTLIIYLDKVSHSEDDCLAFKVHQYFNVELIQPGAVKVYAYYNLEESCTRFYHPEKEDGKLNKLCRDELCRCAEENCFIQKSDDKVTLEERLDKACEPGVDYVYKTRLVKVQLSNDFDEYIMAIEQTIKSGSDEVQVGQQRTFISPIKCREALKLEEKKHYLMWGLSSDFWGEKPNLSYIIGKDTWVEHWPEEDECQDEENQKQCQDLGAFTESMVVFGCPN
T1 sequence (P01024 23-667, chain 2 of 2): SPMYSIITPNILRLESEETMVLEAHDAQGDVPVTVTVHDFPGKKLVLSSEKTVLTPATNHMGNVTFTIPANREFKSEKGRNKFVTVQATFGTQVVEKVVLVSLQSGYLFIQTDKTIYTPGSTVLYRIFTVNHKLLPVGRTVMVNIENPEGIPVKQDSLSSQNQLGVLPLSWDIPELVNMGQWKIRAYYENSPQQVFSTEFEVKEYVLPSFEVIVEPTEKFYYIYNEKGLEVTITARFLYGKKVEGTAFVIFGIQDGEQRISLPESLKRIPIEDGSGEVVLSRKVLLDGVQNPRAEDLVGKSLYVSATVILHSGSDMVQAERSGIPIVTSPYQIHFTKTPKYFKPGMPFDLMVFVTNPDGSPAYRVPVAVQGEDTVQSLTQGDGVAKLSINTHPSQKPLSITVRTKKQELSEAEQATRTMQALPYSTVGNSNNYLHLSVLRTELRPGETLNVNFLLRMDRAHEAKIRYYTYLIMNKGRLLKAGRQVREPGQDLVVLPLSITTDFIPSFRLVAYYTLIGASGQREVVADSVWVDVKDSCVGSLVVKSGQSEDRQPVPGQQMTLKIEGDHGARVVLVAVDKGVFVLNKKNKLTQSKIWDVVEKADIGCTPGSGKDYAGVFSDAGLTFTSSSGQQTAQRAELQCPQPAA

B1: complement factor H (CFH) (other)
chain: EDCNELPPRRNTEILTGSWSDQTYPEGTQAIYKCRPGYRSLGNVIMVCRKGEWVALNPLRKCQKRPCGHPGDTPFGTFTLTGGNVFEYGVKAVYTCNEGYQLLGEINYRECDTDGWTNDIPICEVVKCLPVTAPENGKIVSSAMEPDREYHFGQAVRFVCNSGYKIEGDEEMHCSDDGFWSKEKPKCVEISCKSPDVINGSPISQKIIYKENERFQYKCNMGYEYSERGDAVCTESGWRPLPSCEEKSCDNPYIPNGDYSPLRIKHRTGDEITYQCRNGFYPATRGNTAKCTSTGWIPAPRCTLKPCDYPDIKHGGLYHENMRRPYFPVAVGKYYSYYCDEHFETPSGSYWDHIHCTQDGWSPAVPCLRKCYFPYLENGYNQNYGRKFVQGKSIDVACHPGYALPKAQTTVTCMENGWSPTPRCIRVKTCSKSSIDIENGFISESQYTYALKEKAKYQCKLGYVTADGETSGSITCGKDGWSAQPTCIKSCDIPVFMNARTKNDFTWFKLNDTLDYECHDGYESNTGSTTGSIVCGYNGWSDLPICYERECELPKIDVHLVPDRKKDQYKVGEVLKFSCKPGFTIVGPNSVQCYHFGLSPDLPICKEQVQSCGPPPELLNGNVKEKTKEEYGHSEVVEYYCNPRFLMKGPNKIQCVDGEWTTLPVCIVEESTCGDIPELEHGWAQLSSPPYYYGDSVEFNCSESFTMIGHRSITCIHGVWTQLPQCVAIDKLKKCKSSNLIILEEHLKNKKEFDHNSNIRYRCRGKEGWIHTVCINGRWDPEVNCSMAQIQLCPPPPQIPNSHNMTTTLNYRDGEKVSVLCQENYLIQEGEEITCKDGRWQSIPLCVEKIPCSQPPQIEHGTINSSRSSQESYAHGTKLSYTCEGGFRISEENETTCYMGKWSSPPQCEGLPCKSPPEISHGVVAHMSDSYQYGEEVTYKCFEGFGIDGPAIAKCLGEKWSHPPSCIKTDCLSLPSFENAIPMGEKKDVYKAGEQVTYTCATYYKMDGASNVTCINSRWTGRPTCRDTSCVNPPTVQNAYIVSRQMSKYPSGERVRYQCRSPYEMFGDEEVMCLNGNWTEPPQCKDSTGKCGPPPPIDNGDITSFPLSVYAPASSVEYQCQNLYQLEGNKRITCRNGQWSEPPKCLHPCVISREIMENYNIALRWTAKQKLYSRTGESVEFVCKRGYRLSSRSHTLRTTCWDGKLEYPTCAKR
Binder B1 has an EC50 (human C3b [1]) of 4.5 nM and an EC50 (human C3b [2]) of 1.2 nM.

B2: Var108 (glycoengineered variant of FHL-1, G442N in the Var004 framework) (designed binder)
chain: EDCNELPPRRNTEILTGSWSDQTYPEGTQAIYKCRPGYRSLGNVIMVCRKGEWVALNPLRKCQKRPCGHPGDTPFGTFTLTGGNVFEYGVKAVYTCNEGYQLLGEINYRECDTDGWTNDIPICEVVKCLPVTAPENGKIVSSAMEPDREYHFGQAVRFVCNSGYKIEGDEEMHCSDDGFWSKEKPKCVEISCKSPDVINGSPISQKIIYKENERFQYKCNMGYEYSERGDAVCTESGWRPLPSCEEKSCDNPYIPNGDYSPLRIKHRTGDEITYQCRNGFYPATRGNTAKCTSTGWIPAPRCTLKPCDYPDIKHGGLYHENMRRPYFPVAVGKYYSYYCDEHFETPSGSYWDHIHCTQDGWSPAVPCLRKCYFPYLENGYNQNYGRKFVQGKSIDVACHPGYALPKAQTTVTCMENGWSPTPRCIRVSGGGGSGGGGSGGGNSTLKPCDYPDIKHGGLYHENMRRPYFPVAVGKYYSYYCDEHFETPSGSYWDHIHCTQDGWSPAVPCLRKCYFPYLENGYNQNYGRKFVQGKSIDVACHPGYALPKAQTTVTCMENGWSPTPRCIRVSFTL
modifications: N-linked glycosylation at the engineered NxS/T motif (G442N), >90% glycosylated monomer
B2 showed an EC50 (human C3b [1]) of 0.4 nM.

B3: Var004 (engineered variant of FHL-1) (designed binder)
chain: B2 chain with N442G
B3 gave an EC50 (human C3b [3]) of 2.5 nM.

B4: Factor H-like protein 1 (FHL-1) (other)
chain: EDCNELPPRRNTEILTGSWSDQTYPEGTQAIYKCRPGYRSLGNVIMVCRKGEWVALNPLRKCQKRPCGHPGDTPFGTFTLTGGNVFEYGVKAVYTCNEGYQLLGEINYRECDTDGWTNDIPICEVVKCLPVTAPENGKIVSSAMEPDREYHFGQAVRFVCNSGYKIEGDEEMHCSDDGFWSKEKPKCVEISCKSPDVINGSPISQKIIYKENERFQYKCNMGYEYSERGDAVCTESGWRPLPSCEEKSCDNPYIPNGDYSPLRIKHRTGDEITYQCRNGFYPATRGNTAKCTSTGWIPAPRCTLKPCDYPDIKHGGLYHENMRRPYFPVAVGKYYSYYCDEHFETPSGSYWDHIHCTQDGWSPAVPCLRKCYFPYLENGYNQNYGRKFVQGKSIDVACHPGYALPKAQTTVTCMENGWSPTPRCIRVSFTL
For B4, the EC50 (human C3b [1]) was 7.4 nM.
